System: K4 kissing-loop RNA reporter
Experiment: apparent KD of K4 kissing-loop reporter; higher = weaker reporter binding
Conditions: Eterna round: R107
Experimental: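 RNA-MaP round R107: designed RNA switches with theophylline, tryptophan, arginine or FMN aptamers are transcribed on-chip within common flanks. They are titrated with a labelled K4 kissing-loop RNA reporter in RNA-MaP buffer (100 mM Tris pH 7.5, 80 mM KCl, 4 mM MgCl2), without ligand or with the indicated ligand. Median apparent KD per design.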

[1] = input ligand: theophylline 20 uM
[2] = input ligand: tryptophan 2.4 mM
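Also: bound reporter read as fluorescence of individual clusters on recovered sequencing chips by microscopy, with normalized cluster intensities fitted with a binding model.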

| Sequence | apparent KD of K4 kissing-loop reporter (input ligand: FMN 200 uM) | apparent KD of K4 kissing-loop reporter (input ligand: arginine 13.2 mM) | apparent KD of K4 kissing-loop reporter (input ligand: none) | apparent KD of K4 kissing-loop reporter [1] | apparent KD of K4 kissing-loop reporter [2] |
| --- | --- | --- | --- | --- | --- |
| AACUGUCAAGGACAACAUUACUGAAGUGAUACCAGCAUCGAAAGAUGCCCUUGGCAGCACUGACUUGCAGUGAUGUUGCAAGUAA [BrourdMod 7 - Jieux - Exclusion - Theophylline A] | 211 nM | 165 nM | 194 nM | 200 nM | 194 nM |
| AACUGUCAAGGCCAACAUUACUGAGGUGAUACCAGCAUCGAAAGAUGCCCUUGGCAGCACCGACUUGCAGUGAUGUUGCAAGUAA [BrourdMod 12 - Jieux - Exclusion - Theophylline A] | 329 nM | 266 nM | 333 nM | 370 nM | 287 nM |
| AAGAGCUAGGCGGCCGCCACUAGAUGUGAACACAUACAAACCAGUGAUGUUGGUAUGAUGGACAGUAGGACCGGGCCUAGCUGAA [Exclusion - Tryptophan B (Freestyle 10)] | 998 nM | 585 nM | 1010 nM | 1350 nM | 995 nM |
| AAGCAGUCACUCGAAACCAUCGAAGAUGGGCGAGGACCGGUACGGCCGCCACUCGGAGUGAUGUUCCGAAGACUGCAAAAUAAAA | 377 nM | 348 nM | 592 nM | 443 nM | 354 nM |
| AAGCAGUCACUCGAAGCCAUCGAAGAUGGUCGAGGACCGGUACGGCCGCCACUCGGAGUGAUGUUCCGAAGACUGCAAAAUAAAA [#SwitchBubble 11] | 275 nM | 246 nM | 286 nM | 273 nM | 526 nM |
| AAGCAGUCACUCGCAGCCAUCGAAGAUGGGCGAGGACCGGUACGGCCGCCACUCGGAGUGAUGUUCCGCAGACUGCAAAAUAAAA | 536 nM | 343 nM | 350 nM | 437 nM | 428 nM |
| AAGCAGUCUCUCGAAGCCAUCGAAGAUGGGCGAGGACCGGUACGGCCGCCACUCGGAGUGAUGUUCCGAAGACUGCAAAAUAAAA [MatMod 10 - Jieux - Exclusion - Tryptophan A] | 281 nM | 223 nM | 396 nM | 243 nM | 308 nM |
| AAGCCAGAGAUUGCUGCGGGUUCCAGAGAUACCAGCCGUAUUGAAGGCCCUUGGCAGCUCGAGUGAUGUUCGAGCCGUCUCUAGC [Bisore] | 126 nM | 101 nM | 124 nM | 123 nM | 110 nM |
| AAGCGUGUCGCGGCCGCCACUCCUGAGUGAUGUUCAGAAAGCAGUUUUUUAUUCAGGAAAAGCGCGAGGACCGGGCGACGCCGAU [theeternabot_sameState_KL_Trp_B_1] | 367 nM | 207 nM | 460 nM | 328 nM | 515 nM |
| AAGGCACGGCUUCGGCCGUGCCAAAUAGAUACCAGCAUAAUAAUAUGCCCUUGGCAGCUAAAUAUAAAUUCAGUGAUGUUGGAUA [SS Theo A Tesla 2.2] | 573 nM | 412 nM | 604 nM | 649 nM | 546 nM |
| AAGGGCGGGACUUUCUCGCCGGAUAGAGAUACCAGCCCAGCAAUGGGCCCUUGGCAGCUCACUGACCUCAGUGAUGUUGAGGUUC [Quintege] | 310 nM | 214 nM | 213 nM | 208 nM | 185 nM |
| AAGUAAUGUAUAGAUUAUAUACAUUAAACAGAGGAUAUGCAUUAUUGCAGAAGGCUGAAUGCAGUGAUGUUGCAAUAAUUAUUUA [JR_SSFMNA_Sub002] | 53.1 nM | 190 nM | 184 nM | 297 nM | 146 nM |
| AAGUCAUAGGCAGGAUAUGCUUAGUAUUAAGGCCAUAUAUACGUAUAGAGUGAUGUUUUGUACCAGGCAGAAGGGCUACAUCCGU [FMN B Excl V5 (+2U)] | 755 nM | 562 nM | 699 nM | 683 nM | 541 nM |
| AAGUGAUGUUGUAGUGAUGUUGUGAUGUUGCAGGAUAUAUAGUGAUGUAGAAGGGUAAGUACUGUUUUUUUUUUUGAGUGAUGUU [ookooyzrmullin] | 101 nM | 41.7 nM | 78.4 nM | 67.5 nM | 88.7 nM |
| AAGUGAUGUUGUAGUGAUGUUGUGAUGUUGCAGGAUAUAUAGUGAUGUAGAAGGGUAUGUGCAGUUUUUUUUUUUGAGUGUUGAU [dpdmullin] | 76.6 nM | 34.2 nM | 59.9 nM | 43.1 nM | 61 nM |
| AAGUGUUCUAGUGAUACCAGACAUUUCUAUUACAUUAAUAUAGCUAAGUGAUGUUUAGCAGUCCCUUGGCAGCACUAUUUCACUA [JR_SSTheophyB_Sub015] | 167 nM | 193 nM | 174 nM | 238 nM | 191 nM |
| AAGUUUUAUAAACUCAUGGUUUCGUCAGAUACCAGCCUCGAGAGAGGCCCUUGGCAGCUGCAUGAGUGAUGUUCAUGUUCGAAGA [KL_XTheoA8] | 253 nM | 260 nM | 374 nM | 239 nM | 251 nM |
| AAUAAAAUCACGGCCGCCACUGAAUAAUUACAAAGUAGUGAUGUUACUUUACAUAUCUUAUUUAACAGGACCGGGUGAAUAUUUA [JR_ExcTryptoB_Sub007] | 78.6 nM | 70.2 nM | 76.2 nM | 69.7 nM | 78.3 nM |
| AAUAAAAUCACGGCCGCCACUGAUUAUUUUAUUAGGAGUGAUGUUCCUAUGACAAUAUACCUUAACAGGACCGGGUGAAUAUUUA [JR_ExcTryptoB_Sub010] | 87.8 nM | 89.6 nM | 86.1 nM | 94.4 nM | 80.8 nM |
| AAUAAGGAGUGAUGUUCCAAGUGAUGUUAACGAGGACCGGUACGGCCGCCACUCGAUACGGCCGGAAAGUAAGAUAAACUACAAU [Same State - Tryptophan A (Freestyle 3)] | 70.5 nM | 51.3 nM | 60.8 nM | 55.9 nM | 54.6 nM |
| AAUAUAGUGAUGUUAUAUAAGAAGGAGUUACGAGGACCGGUACGGCCGCCACUCGAAACGAGUGAAGAAGGAGGAAGGAGGAGGA [SSTRyptA.A] | 479 nM | 300 nM | 453 nM | 409 nM | 366 nM |
| AAUAUCUAGUAUAUAUUUAAUAAAACAGAUACCAGUGAUAAUAGACACCCUUGGCAGCUGGACGAGUGAUGUUCGUAUAUAUUAA [JR_SSTheophyA_Sub007] | 90.7 nM | 153 nM | 108 nM | 184 nM | 66.8 nM |

| Sequence | apparent KD of K4 kissing-loop reporter (input ligand: FMN 200 uM) | apparent KD of K4 kissing-loop reporter (input ligand: arginine 13.2 mM) | apparent KD of K4 kissing-loop reporter (input ligand: none) | apparent KD of K4 kissing-loop reporter [1] | apparent KD of K4 kissing-loop reporter [2] |
| --- | --- | --- | --- | --- | --- |
| AAUGCAUAGUGAAGGAGCGCGAUAAGCAGUGAUGUUGCUUAGCUAUUAUUCAUUUUUUUAACGCAGGUAGGUCGCACUUUGCAUA [JR_ExcArginiB_Sub016] | 166 nM | 142 nM | 135 nM | 148 nM | 144 nM |
| AAUGCAUUGUGAAGGAGCGCGUUAAGCAGUGAUGUUGCUUUUAUAUUUUUCAGUUUUAUAUCGCAGGUAGGUCGCACUUUGCAUA [JR_Nu_SSArginiB_Sub029] | 172 nM | 158 nM | 173 nM | 192 nM | 148 nM |
| AAUGUACAAGUGAUGUUUGUACUUUCCGAAGGAGCGUCUAAUAAGACAGGUAGGUCGCGGAUACUCUAAAUAAUCAGGUCAUUGA [#06 K4 Arginine A Exclusion] | 89.9 nM | 89 nM | 79.8 nM | 80.6 nM | 77.4 nM |
| AAUUUACAAUAAUCAUUUAAAGGAUCAGAAGGAGCGUGUUAUAACACAGGUAGGUCGCUGAGCGAGUGAUGUUCGCUAUAUACAA [JR_ExcArginiA_Sub002] | 76.3 nM | 97.7 nM | 90.8 nM | 99.8 nM | 64.5 nM |
| AAUUUACAUUAAUUAUUUAAAGGUUCAGAAGGAGCGUGAAUUAACACAGGUAGGUCGCUGAGCGAGUGAUGUUCGCUAUAUACUA [JR_ExcArginiA_Sub003] | 62.7 nM | 68.9 nM | 65.7 nM | 91.1 nM | 49.4 nM |
| AAUUUAUAUUUAUUCUUUAAAUGUUCAGAAGGAGCGUGAAUUAUCACAGGUAGGUCGCUGAGCUAGUGAUGUUGGCUAUAUACUA [whbob_Ex_Arginine_A_2t124] | 167 nM | 219 nM | 202 nM | 217 nM | 138 nM |
| ACAGUCGGCUGUGAUACCAGUCGUAUUACAACAUGUUGCAGUGAUGUUGCGAGAUAGGAUGACCCUUGGCAGCACUCAGUACGAC [Same State Theophylline B GF10] | 208 nM | 135 nM | 222 nM | 252 nM | 209 nM |
| ACAUUAGGCACGGCCGCCACUGGAUUAAGAUCUUAAGUAUUAAUUAACAUGAGUGAUGUUCAUGCCAGGACCGGGUGACUACCAU [KL-SSTryp-B11] | 275 nM | 222 nM | 261 nM | 267 nM | 252 nM |
| ACCACCAGCCGCACGAUACACGGGCAUUACCGAGGACCGGUACGGCCGCCACUCGCCCGCACGCUGGAUCGAGUGAUGUUCGAUC [theeternabot_sameState_KL_Trp_A_15] | 358 nM | 334 nM | 384 nM | 371 nM | 326 nM |
| ACCAUCAAAGAUGGCCUCGACACCGCUGAUACCAGAGUGAAAACACUCCCUUGGCAGCAGGUGAGUGAUGUUCACAGUCGAAGGA [Omel KL Theo A SS B v1] | 492 nM | 464 nM | 641 nM | 538 nM | 470 nM |
| ACGCGCGCGAGUGAUGUUCGGAGCGGCUGGCAGGAUAUGCCGCAAGGCAGAAGGGUCGUGGCGCGUCCAGGGUAACCUGGACGCG [#2 Exclusion - FMN A Attempt #28 (HarryS)] | 190 nM | 401 nM | 466 nM | 391 nM | 455 nM |
| ACGCGCGUGCGCUGGAAAGCGCACGCGCGUCGAGGACCGGUACGGCCGCCACUCGCUCGCGCCGAGUGAUGUUCGGCCGGCGAAC [#2 SameState - Tryptophan_A Attempt #2 (HarryS)] | 342 nM | 288 nM | 303 nM | 292 nM | 645 nM |
| ACGUCCGGGUUAAUCGUGGGCGUGGUGGAUACCAGUUCUUUAAUGAACCCUUGGCAGCCACAUGAGUGAUGUUCAUGUGCGAUGA [KL-XTheo-A10 #analogue] | 100 nM | 102 nM | 96.2 nM | 98.2 nM | 95.4 nM |
| ACGUGCACCAGUGAUGUUGGAAAAUAUGAAGGAGCGGGAGAAAGCCCAGGUAGGUCGCAUAAUAGCACGAGCCACGAAAGUGGCA | 233 nM | 145 nM | 178 nM | 141 nM | 131 nM |
| ACGUGCACGAGUGAUGUUUGAAAAUCUGAAGGAGCGGGCGAAAGCCCAGGUAGGUCGCAGAAUAGCACGAGCCACGAAAGUGGCA | 202 nM | 272 nM | 319 nM | 142 nM | 191 nM |
| ACUGGAAUUGUACUCCAGUGAUGUUGGAGGCAGGAUAUCCAGUAAAGGAGAAGGGCCAUCGCGCUAUUUAGCCGCAGGCGGCUAA [Atrilazaed] | 251 nM | 130 nM | 126 nM | 136 nM | 131 nM |
| AGAACUGUCUUGGAUACCAGUGAUGUUGGUAUCGAUGUGUGAGUGCAAAGCGUCCCAGAGUGCCCUUGGCAGCUAAGACUGUUCA [#16 K4 Theophylline B Exclusion] | 277 nM | 230 nM | 269 nM | 261 nM | 259 nM |
| AGACGUUUGGGAAGGAGCGGAAUGUAAUACGGAACGCGUGGAGGUGCAGUGAUGUUGCAGAUCCAGGUAGGUCGCCCAAGGGACG [Esenraerve] | 94.1 nM | 122 nM | 99.1 nM | 137 nM | 91.1 nM |
| AGACUACCACACUGUCAAUAGACAGUGAACUAGGAUAUGCUGAUAAGCAGAAGGAGUGAUGUUCCUAAUAAGGUAGUCAUAUAAU [FmnAX 15 #SwitchBubble #StaticStem #K4Early] | 590 nM | 482 nM | 558 nM | 637 nM | 503 nM |
| AGACUACCACACUGUCAAUAGACAGUGAGCUAGGAUAUGCUGAUAAGCAGAAGGAGUGAUGUUCCUAGGUAGUCAAUAAAAUAAU [FmnAX 13 G29] | 447 nM | 462 nM | 435 nM | 645 nM | 493 nM |
| AGACUACCACACUGUCAAUAGACAGUGUACUAGGAUAUGCUGAUAAGCAGAAGGAGUGAUGUUCCUAGGUAGUCAAUAAAAUAAU [FmnAX 13 U28] | 439 nM | 443 nM | 494 nM | 629 nM | 574 nM |
